In patent publication US20250064979A1:

Biological target: Gag-P3-pol (P3 coiled-coil peptide fused to MMLV Gag-pol) (Moloney murine leukemia virus) (UniProt P03332)
Assay: cell-based or functional assay

Substance: Gag-PE fusion with P4 peptide fused to its C-terminus (construct 1 of FIG. 44A) (from UniProt P03332 1-538)
- editing efficiency of PE VLPs: 2 fold
